This data set can be described thus: soluble on expression in E. coli; label from the status in PepcDB or PDB records.
Turning to “MADDDDRVDISNETLASLVGRPMSSSGNRIRATPSRRRLVSAPTNPRWSPSADDRRLFSYVSSMRSDSNSSSKSPSPPSAKMSKRPNGPYSVRKYQPRGSPPSDGSDKIHRFGESPTPGGVGGVFGTELDDLIIDELMGMEDDQRMRPGATRPMTIGGEKTMSMARPIPGASSRAGSGHSGSPITIPNAMSNNFRQVVSSSAPTSSIDIEKMIGAVSNGGGNSGGDNDPEDYYRDRRKKDIHNMIERRRRYNINDRIKELGQMLPKNTSEDMKLNKGTILKASCDYIRVLQKDREQAMKTQQQQKSLESTAHKYADRVKELEEMLARQGVQVPPSHLPPIPKVIERPIKQEIDESPPNHTPTGSFVSSSGFLSEVTNNTAAMQITSPNDSRPNNFMNNSAPSDSFFSVGSASPPDYRTSSGTASWKLPGSNAFSDLMMDDLNPMMNGDPLISSAGAHPSPHFHSSQMSPDIHWDASGFSPDPINTQQSNSGHYHMDFS”, the “soluble on expression in E. coli” value was “not soluble”.

“MSMGKQGVKTAVPKLRFPEFRHSEAWELKKLSCFLVEQKKRNKNLSFGPQEVLSVSGEHGCVNQIELLGRSYAGVSLANYHVVETGDIVYTKSPLKRNPFGIIKENKGKPGVVSTLYAVYRTTVFGNPAFLDHYFSGDYNLNSYLQPIVRKGAKNDMKVSNAAVLAGEVFAPEVEEQKKIADFLTSLDDLISVQVLKVEALKVHKRGLMQELFPREGEASPRLRFPEFSNASGWTLGKASDIIDVLQGYGFPERLQGGREGNFPFYKVSDISACVDAGGILLDKANNHIDADVLEELRAKLMPIGSTVFAKIGEAIRSNKRAITSRPCLVDNNVAGVKAITGLAHDRFVYYMWCQIPLIEYAGGVVPAVKKSLMEQIPVCYPKFDEQQRIADFLSSLDAKIAAEFDQLAALRTHKKGLMQQLFPLSEVGLLEHHHHHH”: the “soluble on expression in E. coli” value was “soluble”.

As for “MAHHHHHHMELYQDNKINNVGNIEINQCDGVIKKENDLHVSVIKPITKKIIHCDNMENKMKINAFYKPVELVEEIKNYVHKGDTHLVKLYEDFKNKKDKKVKMKNEYMTKLKNLHILNMINNKKKENECGVVNKNNIVHFNLFNENEDVTPKIETVYIPKLEKNIEVVSHLKENVNVDYTYMVPKPVVIPIEVPILKFRDHFKIIPIRKKIIPVIKYTDNIIYVDCCVEKPYIVYENVIIPVPCDIPIEQKKYIDKVPPI”, the “soluble on expression in E. coli” value is given as “not soluble”.

On to “MGSDKIHHHHHHMTKIKHIFSDLDGTLLDDQGKISKKTQEVIENSNLPFSLVSARAPQAMESLINQLNLKSSQVAFNGGLIFAKNEVIKANPMVHASAQELIKTIKKDYPEINLSLYSLSDWYVEKIDKDIEQEMQFTPQVPKLVDLETLITERPRLEIFKILLITPNESKLEEIKKHLEKLNFPDIIIQKTWETYLEITHLEAQKAKAVQFIAQREQLEQSELAAFGDNENDLSMLKAVGLPIVMANASDDLKKIGKVITKSNTEDGVAYGIQKYITDSLF”, for which the “soluble on expression in E. coli” value is given as “not soluble”.

For “MLYPSKPNNEALRIQTLRELNVLDTSPEERFDRLTRLAKRLFNVPIALVSLVDADRQWFKSCVGLDVSETSRDISFCGHAILGDQILTVPDAGLDERFHDNPLVVGAPGIRFYAGCPLTVTNGSKLGTLCLIDIKPRDLDDEDRALLRDLARMAEQELAAVQMASMDELTLLSNRRGFEALARHALGVCKRLEKPATLLFFDLNDFKQINDTYGHAEGDGALKTFADVLRIAFRESDVIGRLGGDEFVALLTAADHVETSAIMARLREILDERNATLKRGYDIRFSVGQIEYDAERHPDIEALLADADKAMYLHKQASKRAR”, the “soluble on expression in E. coli” value is on record as “not soluble”.

For the sequence “MDDDDTFTCRIQYINDADPFATTSSSYLEPMRPVTFKFRLHECISDQLQDVIRTLRAPHKAGDSSLQVYRGLEGGGGELHTYLDNDMTLTDQQEELDILKADTRRCSLVLRTQTSLRVKTIIDKLLNCSGRDQRRALFSLKQIFQDDQDLVHEFVQNQGLDCMIRLGRTADQNHQNYILRALGQLMLYVDGMNGIIAHNGTIQWLYELLDSPFRLVVKTALKLLLVFIEYNDNNALLVLTAIQTVDKSKGQADWSGLMKVLTEKDSPDAETLVYGMTVVNKALHGIPDRVVILEPLHEFHPQFPQQFLHGNHQSGRIFNRLHLLQLITTISGLFAAKIFRRRFSWFRKIKRTRFRKKPTRVKVKAPPPSFPTLFSPTESKTMDFSEVAPQEPEPEKVAPPPPRAKIEDTGSGNSFADMLQKRAARSAEANRGTFEKKESEAEMQWKKAAENLEKRPLIINDLDFSQFHGVEYQQDPLQLARMAKMKEMAENGMRGGPVGVGVPPPPPPPSAIPLPPRLQGGIPPPPPLGIIPPPPPPGNLLMNGINRGDISPAANKGVLKLHWKPATVEQPDGIPSLKQKGSFWNTVDGAVPTFDAKKIVQLFETKKEKEAPVKKVAETKTQTLSVLPLKRSQAINIGLTKLPPINVIPAAIMKFDSLVLNKDGIEKILKTMMPSPKEIEEIEIKAAENPEMTLGNAEQLLLKLSQIPCLLERLRLWLFTLDYKNSEKDIAEPLMDMQLAMKEMEESRTFKVAMGMLLAIGNSLSGTDIKGFYLDYLTKASEVKDPVYKHTLTYHLAEYMVEHFSEGTDLYSEFGAVARSARVDYKELLDNLIRLEKDCKSSWECLATINVAQRIHQLKAIYTVTKNRWHSFLLYFGYSVDEIPNQTPNDVFKMVTEFSLEYRTTRDKILQQRKRLAEKRERNKTRGKIWALEGSSAEGGAGDAAPLRRRNHGPGTVAPVQNSQQRHDDMSKMLASMADDNNSLRRRPAGSNGVNGRNFGGSVKDLVDTESPEDEILNGLVKAATLQTDPRDQRRRARQFNRKSLRRTRTLKMVDGQLETNY”, the “soluble on expression in E. coli” value was “not soluble”.

“MAHHHHHHMQTNYNEIRNLFNYYIREYFYQKSKGSYFVHFKKPGILFMSLKCYKRKKMYYPCIYDWYFDNLNNVKKNKDIFQYKNEYNTKNIYSHKICTEKENLGKNNSYVETDNIYLNKSEENLQNIYKSSNLYYNINPIYLSKICLYNLNEYHILYSNNYYDAFTQYYYSLISYKMDVHNMKIFPNLKILISHIKNISNIINDEVIKNAYIYLIKQRNIMNEEYLKNVFRNIYTTMLHNSSLYLFVDNHDQFIMILKIIKTDDIKSMFESAIPYPYYLIVDENINIYNLQSFNIYINSILNQRMQYNYPYNEKEKGSILNHYNNDKMYMTYNNNINQSKDIKIEKQTEQNEKGFNSMLDTDKGVYEKNIIKDKNDKVYFFKFIKIFDMKPNYRFKQKK”: the “soluble on expression in E. coli” value is recorded as “not soluble”.

As to “MSLAACSGGGNSSQGSGGSKFAFWDMPWGSPGPDYLAAGKEISAAFSGGSATYQSISWDGWLQTFSSAIAAGTGPAISTGGAFQSLQYYVQDAVHPADGVIAKLRSKGQLDDFLPGTLDVFKYKGAYTALPWNVDSRLLWYRKSLLEKAGVEEPRSWDDLYRVGVALKKNDVYGMVASGGAGGNAYQTFLSFVFNNGGGLFDKDGEPQCVTDANVEAVEFLMKLAKDGIMDPGSVSYTVANLNDQFSSGAAALSILPPDIANSFEDPRLKADITLGSPLTSPNGTKGTMAYTSDLILYTGDWDTDVVEDFAVYYLDAMSAYWKKGVLNKVPVRQSILDLPEVQAQPNLVKATKEWLPVGKSLTQLAGEPFPEINAVDGGQAITQWAQQVIQAKSSGEQTLRTLQDGIEKVMEGHHHITTDPNSSSVDKLAAALEHHHHHH”, the “soluble on expression in E. coli” value is on record as “soluble”.

Take “GSHMGGWSIALHGGAGDIPFSLPPERRKPREEGLRHCLQIGVEALKAQKPPLDVVELVVRELENIEHFNAGIGSVLTNSGTVEMEASIMDGNTMKCGAVSGLSTVLNPISLARLVMDKTPHIYLAFQGAQDFAKQQGVETVDSSHLITAENVERLKLAIEANRVQVDYSQYNYPEPVKDDAEKELPLTNGDSQIG”: the “soluble on expression in E. coli” value is listed as “soluble”.

“MASWSHPQFEKGASTSLYKKAGRMSKFTWKELIQLGSPSKAYESSLACIAHIDMNAFFAQVEQMRCGLSKEDPVVCVQWNSIIAVSYAARKYGISRMDTIQEALKKCSNLIPIHTAVFKKGEDFWQYHDGCGSWVQDPAKQISVEDHKVSLEPYRRESRKALKIFKSACDLVERASIDEVFLDLGRICFNMLMFDNEYELTGDLKLKDALSNIREAFIGGNYDINSHLPLIPEKIKSLKFEGDVFNPEGRDLITDWDDVILALGSQVCKGIRDSIKDILGYTTSCGLSSTKNVCKLASNYKKPDAQTIVKNDCLLDFLDCGKFEITSFWTLGGVLGKELIDVLDLPHENSIKHIRETWPDNAGQLKEFLDAKVKQSDYDRSTSNIDPLKTADLAEKLFKLSRGRYGLPLSSRPVVKSMMSNKNLRGKSCNSIVDCISWLEVFCAELTSRIQDLEQEYNKIVIPRTVSISLKTKSYEVYRKSGPVAYKGINFQSHELLKVGIKFVTDLDIKGKNKSYYPLTKLSMTITNFDIIDLQKTVVDMFGNQVHTFKSSAG”: the “soluble on expression in E. coli” value was “soluble”.

“ANKMALLIDGPNMLRKEFNVDLDKVRDALEQFGDIVVGRVYLNQYASDKLIEAIANQGFEPRISAGDVDVEMAVEGTELIFNKNIDTIVYMTRDADFLPAIRKAKERGKQIIVVGAEPGFSTAIQNIADHVIRVEEDFE”: the “soluble on expression in E. coli” value was “not soluble”.

Consider “MKKIQRTQTRDHITQMLRYEILSGNIKAGEELAQESIAEQLGLSRMPVREALQSLEQEGFLIRLPNRHMQVAHLEADRVSHIFRVIAAMAAEMFSLIPSEVGDALLIRAQALAVAEDKSCELECHAMLISYVNNRYLEKVYQQFLDGYVSYVILHLKKDNQESAQLFAELADVIRQGRRDEIGQVMQRYFLSLAEIMRQHMKDWESAEA”, for which the “soluble on expression in E. coli” value was “not soluble”.

In the case of “MRSMKVFISIGVVLSVVNCIFFDHGDSSDGSYSDSSGEGRGHHHKHGPRPPRPNRPPRPPPATPPPTTPAPSCPGGWSLIHRRRGPWCIQVFNGAAGLEGSNNACRAQGAVLSSVENAQERETIARLGLEKMLPTGWKYGTIRVGLRKNSQGAPWYNTDGSTDANNLEGVLWSPAEPRNGNWGGVQLNCATMWLWGGIFEGGRIHGQFFTNICLANNPNDRYRGYVCGKPA”, the “soluble on expression in E. coli” value is “not soluble”.

In the case of “MSDFGNPLKKFKLVFLGEQSVGKTSLITRFMYDSFDNTYQATIGIDFLSKTMYLEDRTVRLQLWDTAGQERFRSLIPSYIRDSTVAVVVYDITNSNSFHQTSKWIDDVRTERGSDVIIMLVGNKTDLSDKRQVTTDEGERKAKELNVMFIETSAKAGYNVKQLFRRIAGALPGIIKDDPVEPPNVVTMDPIRQRQIVTDEGSCWC”, the “soluble on expression in E. coli” value is “not soluble”.

As to “MGSDKIHHHHHHMPSERASSFDIMLWVLSGCSELLYGTQALPLTGKVDRIFGPAREPRDVRVLNYLELADRLDRSGIGTAVDHQRAALSETDIEVETTPWQEGHPAWALGGNIAFNDPMFREFDIAHCNMIGPGSVAVARYAAQADIPLVLHAHVTREDFRDSFRGSNLIAPVLGRYLRWFYSQADLVLCPSEYTKGILESYPVDAPIRPMTNGVDIDALAGHEDMREDYRRRYDLDGMVVFAVGNVFERKGLTTFCELAQETEHDFAWFGPYDAGPQASKTVSRWVNNPPENVTFTGWVEDIRGAFGAGDVYLFPTKAENQGIAVLEAMACGKAVVLSDIPVFREYYEDGHDCLICADEAEFREALERLAENPDLRERLGENARETAREHSLDRVSRRLVETYEELA”, the “soluble on expression in E. coli” value is “not soluble”.

In the case of “MEARPRVAGIVLAAGKSTRMGRPKQLLPFRGRTVLECVVDNALASRLHRVVVVLGHEAEAVMPLLGHRCVTTVVNPLYGEGQSSSLKAGLGAMTEETDAALFLLGDQPLVTADTINLLIAAFADFPSPIVIPTFEGHRGNPVLFSRETFPRIEALSGDRGARGLFREYGDDIRSIDVRTPAILFDLDTEEDYLRLLREFPAVLEHHHHHH”, the “soluble on expression in E. coli” value was “not soluble”.

The values are drawn from the DeepSol protein solubility set.
